Experimental data published in patent publication US20140343095A1, “Methods of Diagnosing and Treating Multiple Sclerosis” (The Brigham and Women's Hospital, Inc., priority 2009, published 2014).

Test system: PARP-1
Experiment: FACS PARP-1 activity in innate and adaptive immune cells treated with HSP60 or 15-HC
Format: cell-based, human
Settings: CD4+ T cells, CD8+ T cells, B cells of healthy controls; HSP60 1, 5, 10 ng/ml; 15-HC 1, 5, 10 ug/ml
Source text: FIGS. 17A-C are bar graphs showing that 15-HC, but not HSP60, activates PARP-1 in cells of the innate immune system. Mean PARP-1 activity as determined by FACS in classical monocytes (17A), inflammatory monocytes (17B) and dendritic cells (17C) of healthy controls (HC) treated with activated with HSP60, 15-HC or left untreated. The data are shown as mean fluorescence intensity (MFI)±SD of 5 samples/group.
FIGS. 18A-C are bar graphs showing that both 15-HC and HSP60 activate PARP-1 in cells of the adaptive immune system. Mean PARP-1 activity as determined by FACS in CD4+ T cells (18A), CD8+ T cells (18B) and B cells (18C) of healthy controls (HC) treated with activated with HSP60, 15-HC or left untreated. The data are shown as mean fluorescence intensity (MFI)±SD of 5 samples/group.
A new FACS-based method was developed to detect PARP-1 activation based on the intracellular detection of the PARP-1 product PAR with specific antibodies. Briefly, the cells were incubated with antibodies to CD16/32 to block unspecific antibody binding, and then stained for surface markers. […] The samples were then analyzed by FACS.
To investigate whether the increased activity of the TLR2/PARP-1 axis in SPMS patients resulted from increased levels of TLR2 ligands, the levels of 15-HC and HSP60 were measured in serum samples from healthy controls, RRMS and SPMS patients. […]

B1: HSP60: TLR2 agonist HSP60 (protein, UniProt P10809 27-573, looked up)
60 kDa heat shock protein, …: AKDVKFGADARALMLQGVDLLADAVAVTMGPKGRTVIIEQSWGSPKVTKDGVTVAKSIDLKDKYKNIGAKLVQDVANNTNEEAGDGTTTATVLARSIAKEGFEKISKGANPVEIRRGVMLAVDAVIAELKKQSKPVTTPEEIAQVATISANGDKEIGNIISDAMKKVGRKGVITVKDGKTLNDELEIIEGMKFDRGYISPYFINTSKGQKCEFQDAYVLLSEKKISSIQSIVPALEIANAHRKPLVIIAEDVDGEALSTLVLNRLKVGLQVVAVKAPGFGDNRKNQLKDMAIATGGAVFGEEGLTLNLEDVQPHDLGKVGEVIVTKDDAMLLKGKGDKAQIEKRIQEIIEQLDVTTSEYEKEKLNERLAKLSDGVAVLKVGGTSDVEVNEKKDRVTDALNATRAAVEEGIVLGGGCALLRCIPALDSLTPANEDQKIGIEIIKRTLKIPAMTIAKNAGVEGSLIVEKIMQSSSEVGYDAMAGDFVNMVEKGIIDPTKVVRTALLDAAGVASLLTTAEVVVTEIPKEEKDPGMGAMGGMGGGMGGGMF
PARP-1 activation in cells of the adaptive immune system (FIG. 18): could activate
